Assay results reported in a protein production outcome set (Wang et al. 2014).

test: label from the status in PepcDB records

Sequence	protein production
SPMANSGPLCCTICHERLEDTHFVQCPSVPSHKFCFPCSRESIKAQGATGEVYCPSGEKCPLVGSNVPWAFMQGEIATIL	not failed
SPNPPKLTKQMNAIIDTVINYKDSSGRQLSEVFIQLPSRKELPEYYELIRKPVDFKKIKERIRNHKYRSLGDLEKDVMLLCHNAQTFNLEGSQIYEDSIVLQSVFKSARQ	not failed
SQEIVAGELERCFLAMPESVLPIVTMEERNDLCRRAGHLSGFTHTASLESSLGGTVTFLLNRNFIRIQTSTVGEVFMRILPFSDSSSVICVVTTVLHPVADSRIDFYTTEWKPLKTDRFWQQPRIEDFFLPHTDRQSYAYQAIYASLTPSYMQVSLSEESDTLSIRQTVTETLAEEEKPLAAIFLSPEPLVYRWQSGRFVRQVR	not failed
SQELTLSPGPAKLTPTLDPTHRMELILSTSPAELTLDPACQPKLPLDSTCQPEMTFNPGPTELTLDPEHQPEETPAPSLAELTLEPVHRRPELLDACADLINDQWPRSRTSRLHSLGQSSDAFPLCLMLLSPHPTLEAAPVVVGHARLSRVLNQPQSLLVETVVVARALRGRGFGRRLMEGLEVFARARGFRKLHLTTHDQVHFYTHLGYQLGEPVQGLVFTSRRLPATLLNAFPTAPSPRPPRKAPNLTAQAAPRGPKGPPLPPPPPLPECLTISPPVPSGPPSKSLLETQYQNVRGRPIFWMEKDI	not failed
SQGLDTLLRDLTDRAVVQVPGAVACSVTVRRADRLMTLAGSTGLPSGLDLRQYENGSGPCVDAAESGDAQYCADLAEETRWPAYTEYALATGVRCVLALPLPIEGETGAALNLYGLVPGSLVQGLDAARAFAERAADAVNEALRIERRQASAADVRTALLSRSVIDQAVGMLMARERI	not failed
SQPQQGKQYEVLPVSLQEYNLAPLTEAFALTCGHCRSMEEFVPQIESLTEQKVEKMHVTFNESAQISAIIFYTAVMQLDATPDKAFMADLFAAVQMGADATAEERQQAVEKAFESRNLISPYHLDEAQQEKLFEYITKAESITTRGQINSVPAFIVNGKYQVITGGHDSVEAMAETINYLLKQ	not failed
SRKRLSAPELRLSLTKGPGNDGASPTQSAPSSPDGSSDLEIDELETPSDSEQLDSGHEFEWEDELPRAEGLGTSETAERLGRGCMWDVTGEDGHHWRVFRMGPREQRVDMTVIEPYKKVLSHGGYHGDGLNAVILFASCYLPRSSIPNYTYVMEHLFRYMVGTLELLVAENYLLVHLSGGTSRAQVPPLSWIRQCYRTLDRRLRKNLRALVVVHATWYVKAFLALLRPFISSKFTRKIRFLDSLGELAQLISLDQVHIPEAVRQLDRDLHGSGGT	failed
SSALSRNGSFITKEKKDTVLRQVRLDPCDLQPIFDDMLHFLNPEELRVIEEIPQAEDKLDRLFEIIGVKSQEASQTLLDSVYSHLPDLL	not failed
SSETPAQCSIKQERISYTPPESPVPSYASSTPLHVPVPRALRMEEDSIRLPAHLRLQPIYWSRDDVAQWLKWAENEFSLRPIDSNTFEMNGKALLLLTKEDFRYRSPHSGDVLYELLQHILKQRKPRILFSPFFHPGNSIHTQPEVILHQNHEEDNCVQRTPRPSVDNVHHNPPTIELLHRSRSPITTNHRPSPDPEQRPLRSPLDNMIRRLSPAERAQGPRPHQENNHQESYPLSVSPMENNHCPASSESHPKPSSPRQESTRVIQLMPSPIMHPLILNPRHSVDFKQSRLSEDGLHREGKPINLSHREDLAYMNHIMVSVSPPEEHAMPIGRIADCRLLWDYVYQLLSDSRYENFIRWEDKESKIFRIVDPNGLARLWGNHKNRTNMTYEKMSRALRHYYKLNIIRKEPGQRLLFRFMKTPDEIMSGRTDRLEHLESQELDEQIYQEDEC	not failed
SSKPPPKPVKPGEGGQVKVFRALYTFEPRTPDELYFEEGDIIYITDMSDTNWWKGTSKGRTGLIPSNYVAEQAESIDNPLHEAAKRGNLSWLRECLDNRVGVNGLDKAGSTALYWACHGGHKDIVEMLFTQPNIELNQQNKLGDTALHAAAWKGYADIVQLFLAKGARTDLRNIEKKLAFDMATNAACASLLKKKQGTDAVRTLSNAEDYLDDEDSD	failed
SSKVIIPKIVGHRGVGKEGLAPENTLRSFVLCMERNIPYIETDLRVCKTGEIVLFHGTPEGTIPFYKDGTSRIGDLSLEELKRLDVGGGHTIPSLEELFVAIEEQKFNLKLNLELKGEEWKRKESGDHQRLLLLVEKYHMQERVDYCSFHHEALAHLKALCPDVKITYLFNYMGQPTPLDFVEQACYGDANGVSMLFHYLTKEQVCTAHEKGLSVTVWMPWIFDDSEEDWKKCLELQVDLICSNYPFGLMNFLSNISE	not failed
SSLICSISNEVPEHPCVSPVSNHVYERRLIEKYIAENGTDPINNQPLSEEQLIDIKVAHPIRPKPPSATSIPAILKALQDEWDAVMLHSFTLRQQLQTTRQELSHALYQHDAACRVIARLTKEVTAAREALATLKPQAGLIVPQAVPSSQPSVVGAGEPMDLGELVGMTPEIIQKLQDKATVLTTERKKRGKTVPEELVKPEELSKYRQVASHVGLHSASIPGILALDLCPSDTNKILTGGADKNVVVFDKSSEQILATLKGHTKKVTSVVFHPSQDLVFSASPDATIRIWSVPNASCVQVVRAHESAVTGLSLHATGDYLLSSSDDQYWAFSDIQTGRVLTKVTDETSGCSLTCAQFHPDGLIFGTGTMDSQIKIWDLKERTNVANFPGHSGPITSIAFSENGYYLATAADDSSVKLWDLRKLKNFKTLQLDNNFEVKSLIFDQSGTYLALGGTDVQIYICKQWTEILHFTEHSGLTTGVAFGHHAKFIASTGMDRSLKFYSL	not failed
SSPQDTCCPPDSWPALKVDYKPKGKLEDIGKGLKAYVVGNGPRAVIALNDVFGIESGHSKEICDAIADKGFTVVFPDVFRGKPLQVSDMSKLFDELPGWAKQFDYEPALRKDVVEVILPYLHDKLGFKSNDQIALAGFCWGAFMLFHLAGDTKLPGGPFACGVSFHPSVQIEGVFQRDPLQLIDRATCPQLLLPSAGEPDYMKEEGDAIKKLRAKPFGASCGVKTFPSMQHGWVNRGDRNDPQVVKEAQEALQLAVDFMMRHTKPKA	not failed
SSRKSGIGHEASLKRKAEEKLESYRKKIHMKNQAEEKAAEQFRMRLKNKQDEMKLEGDLRRSQRACQQLDVQKNIQVPREAWYWLRLEEETEEDEEEKEQDEDEYKSEDLSVLEKLQILTSYLREEHLYCIWCGTAYEDKEDLSSNCPGPTSADHD	failed
SSSQDVLIHSDDPCHPANLICTLCKQFFHNNWCTGTGGGISIKDPNTNYYYLAPSGVQKEKMIPEDLFVMDAQTLEYLRSPKLYKPSACTPLFLACYQKKNAGAIIHTHSQNAVICSLLFGDEFRIANIEQIKAIPSGKVDPVTKKPMALSFFDTLKIPIIENMAHEDELIDDLHKTFKDYPDTCAVIVRRHGIFVWGPTIDKAKIFNEAIDYLMELAIKMYQMGIPPDCGIGEEKKHLKMASP	not failed
STGSATTTPIDSLDDAYITPVQIGTPAQTLNLDFDTGSSDLWVFSSETTASEVDGQTIYTPSKSTTAKLLSGATWSISYGDGSSSSGDVYTDTVSVGGLTVTGQAVESAKKVSSSFTEDSTIDGLLGLAFSTLNTVSPTQQKTFFDNAKASLDSPVFTADLGYHAPGTYNFGFIDTTAYTGSITYTAVSTKQGFWEWTSTGYAVGSGTFKSTSIDGIADTGTTLLYLPATVVSAYWAQVSGAKSSSSVGGYVFPCSATLPSFTFGVGSARIVIPGDYIDFGPISTGSSSCFGGIQSSAGIGINIFGDVALKAAFVVFNGATTPTLGFASK	not failed
STMEKSVLGGQDQLRVRVTELEDEVRNLRKINRDLFDFSTRFITRPAK	not failed
STNLQEKGLVVSIVDTLMFDTGRAEVKPDFQKKLVEIGEILKTIDNYIRIEGHTDNTPISNSQYASNIELGSARSNNVEHLFIDVSKIPVTQMYTVSYADTRPVADNNSEAGKARNRRVDIVILNSKFNAVEQESSGK	failed
SVILFDRTFISPTEISDIYTKDAIGMKKADYLRKKLTSIFPEIEVQNLPDTINISNYLNDSDFDIIIVNSEHFNIKLLSELNDLLYKISTPYMYAWIEGSRGYIGPLIYPPDTSCFNCYLTWRFFGTFMEDKIKAINNYGSSGYIFPLDKIIGALTVLEVCKAIGSLGTPLFNKIILVEVLPTLTIRYIPILKDPKCNVCEG	failed
TAGKKAAMDRLSTQEGIISALAIDQRGALKKMIKALDVEPTDAQIETFKELVSKELTPYASAILLDPEYGLPAAKARDTEAGLLLAYEKTGYDATTPGRLPDLLADWSVLRLKEEGADAIKFLLYYDVDEDPEINHQKHVFIERLGSECAEEDLPFYLELVSYDAQIADATSLEYAKVKPHKVNEMMKEFSKPQYKVDVLKVEVPVNMNFVEGFAPAETAYTKEEAANYFLEQSQATDLPFIFLSAGVSTELFQETLRFAKEAGSTFNGVLCGRATWKNGVKPFVEAGETAACDWLKTEGRENIESLNEVIAATASSWHAKVQVNE	failed
TALIASGLVPQPFYFYGFLPRKKNEQKADLAKLARRHETVVLYESPFRVAKTLTLLATVCEGTRPIVACRELTKRYEEFARGTLAEMVTWAQDHQLKGEFVLLIGGNPDK	failed
TDYDNREKSADIALLKEMNSLRDIIENNSDWIWEVDVAGRYTFSSAKSIELLGRLPHEVIGKTPFDFMPKDEAHRVGKLFAEIAAERIPFAGLQNRNIRADGSEVLIESSGIPLFDHNGEFKGYRGIDRN	failed
TEALRMEREALLAEMGVAVREDGGTVGVFSPKKTPHLVNLNEDPLMSECLLYHIKDGVTRVGQVDMDIKLTGQFIREQHCLFRSIPQPDGEVVVTLEPCEGAETYVNGKLVTEPLVLKSGNRIVMGKNHVFRFNHPEQARLE	failed
TETSPDKWLIDGDTPLDEVERAIGYELPEGDYETISGLLFDHANALLKTGDVIEIPLDFEPEDYLNNTSPTQRILRITVLEVERNVPVKLALALLEDHPDNHPAPKENR	not failed
TGGLAIIQSMKHKLPPSERKLADYILAHPHKAIESTVNEISALANSSDAAVIRLCKSLGLKGFQDLKMRVAGDLAKPTFQGYRDIVPHEPLPSISEKTAGNAIQAI	failed
TIDLDYQRLALESLRFGHQKILEKIAKEKPKTNASNEDEDNLNASMIVTDTSTGKILALVGGIDYKKSAFNRATQAKRQFGSAIKPFVYQIAFDNGYSTTSKIPDTARNFENGNYSKNSEQNHAWHPSNYSRKFLGLVTLQEALSHSLNLATINLSDQLGFEKIYQSLSDMGFKNLPKDLSIVLGSFAISPIDAAEKYSLFSNYGTMLKPMLIESITNQQNDVKTFTPMETKKITSKEQAFLTLSVLMDAVENGTGSLARIKGLEIAGKTGTSNNNIDAWFIGFTPTLQSVIWFGRDDNTPISKGATGGVVSAPVYSYFMRNILAIEPSLKR	failed
TIDLNYQNKVESILKQYYGSELSSGRASFSEGMYAVAIEPSTGKVLAMAGLKNDHGNLVDDSLGTIAKNFTPGSVVKGATLSSGWENKVLRGNEVLYDQEIANIRSWFTRGLTPISAAQALEYSSNTYMVQVALRLMGQDYNTGDALTDRGYQEAMAKLRKTYGEYGLGVSTGLDLPESEGYVPGKYSLGTTLMESFGQYDAYTPMQLGQYISTIANNGNRLAPHVVSDIYEGNDSNKFAQLVRSITPKTLNKIAISDQELAIIQEGFYNVVNSGSGYATGTSMRGNVTTISGKTGTAETFAKNVNGQTVSTYNLNAIAYDTNRKIAVAVMYPHVTTDTTKSHQLVARDMIDQYISQFTGQ	failed
